Data published in patent publication US20240301041A1 (Regeneron, published 2024).

Columns and labels:
[1] = target: T1, Protein A on the surface of S. aureus Newman wild-type (Staphylococcus aureus (strain Newman), UniProt P38507 37-477); test: ELISA on plate-coated S. aureus Newman WT (grown in TSB)
T1 construct: whole, on cells; also called S. aureus Newman WT; wild-type S. aureus expressing Protein A

[2] = target: T1, Protein A on the surface of S. aureus …; test: ELISA, coated S. aureus Newman, antibody 3.09E-07 M
[3] = target: T1, Protein A on the surface of S. aureus …; test: ELISA, coated S. aureus Newman, antibody 1.47E-13 M
[4] = target: T1, Protein A on the surface of S. aureus …; test: ELISA, coated S. aureus Newman, antibody 4.82E-09 M
[5] = target: T2, Protein A (purified reagent) (Staphylococcus aureus, UniProt P38507 37-477); test: SPR (Biacore), mAb captured by anti-human Fc, Protein A injected, 25 C
T2 construct: also called Protein A (Calbiochem, 539202-5 MG); Protein A reagent

[6] = target: T1, Protein A on the surface of S. aureus …; test: ELISA, coated S. aureus Newman, antibody 9.42E-12 M
[7] = target: T1, Protein A on the surface of S. aureus …; test: ELISA, coated S. aureus Newman, antibody 7.54E-11 M
[8] = target: T3, IgG binding protein (Protein A homolog SpsQ/SpsP) on MRSP S. pseudintermedius 88493 (Staphylococcus pseudintermedius); test: ELISA, coated S. pseudintermedius 88493, antibody 9.42E-12 M
T3 construct: whole, on cells; also called MRSP Staphylococcus pseudintermedius 88493 (methicillin-resistant)

[9] = target: T4, IgG binding protein (Protein A homolog SpsQ/SpsP) on S. pseudintermedius AHDRCC 98200 (Staphylococcus pseudintermedius); test: ELISA, coated S. pseudintermedius 98200, antibody 4.82E-09 M
T4 construct: whole, on cells; also called S. pseudintermedius 98200; Staphylococcus pseudintermedius AHDRCC 98200

[10] = target: T1, Protein A on the surface of S. aureus …; test: ELISA, coated S. aureus Newman, antibody 6.03E-10 M
[11] = target: T3, IgG binding protein (Protein A homolog …); test: ELISA, coated S. pseudintermedius 88493, antibody 7.54E-11 M
[12] = target: T5, IgG binding protein (Protein A homolog SpsQ/SpsP) on S. intermedius 27369 (Staphylococcus intermedius); test: ELISA, coated S. intermedius 27369, antibody 1.47E-13 M
T5 construct: whole, on cells; also called Staphylococcus intermedius 27369

[13] = target: T5, IgG binding protein (Protein A homolog …); test: ELISA, coated S. intermedius 27369, antibody 6.03E-10 M
[14] = target: T3, IgG binding protein (Protein A homolog …); test: ELISA, coated S. pseudintermedius 88493, antibody 3.09E-07 M
[15] = target: T5, IgG binding protein (Protein A homolog …); test: ELISA, coated S. intermedius 27369, antibody 1.18E-12 M
[16] = target: T5, IgG binding protein (Protein A homolog …); test: ELISA, coated S. intermedius 27369, antibody 3.09E-07 M
[17] = target: T1, Protein A on the surface of S. aureus …; test: flow cytometry; blocking antibody 10 ug/mL, then Alexa-488 Fc fragment (competitor) on wild-type S. aureus
[18] = target: T4, IgG binding protein (Protein A homolog …); test: ELISA, coated S. pseudintermedius 98200, antibody 3.86E-08 M
[19] = target: T1, Protein A on the surface of S. aureus …; test: ELISA on plate-coated S. aureus Newman WT
[20] = target: T4, IgG binding protein (Protein A homolog …); test: ELISA, coated S. pseudintermedius 98200, antibody 3.09E-07 M
[21] = target: T5, IgG binding protein (Protein A homolog …); test: cell-based or functional assay
[22] = target: T1, Protein A on the surface of S. aureus …; test: cell-based or functional assay
[23] = target: T4, IgG binding protein (Protein A homolog …); test: cell-based or functional assay
[24] = target: T3, IgG binding protein (Protein A homolog …); test: ELISA, coated S. pseudintermedius 88493, antibody 1.47E-13 M

B1: H1xH15140P*/* (anti-Protein A) (antibody, V domains shown)
VH: EVQLVESGGGLVQPGGSLTLSCTASGFSFSSYVMSWVRQSPGKGLEWVSAIGGSGTSTYYRDSVKGRFTISRDNSKNTLNLQMSSLRAEDTAVYYCARDGLGHRDYWGQGTLVTVSS
VL: DIQMTQSPSSVSASVGDRVTITCRASQGINSWLAWYQQKPGKAPKLLIYAASSLQSGVPSRFSGSGSGTDFTLTISSLQPEDFATYYCQQANSFPFTFGPGTKVDIK
notes: also called anti-Protein A hIgG1*/*; H1xH15140P*/*-L1
- EC50 [1]: 0.0906 nM
- ELISA luminescent signal [2]: 979000
- ELISA luminescent signal [3]: 22000
- ELISA luminescent signal [4]: 828000
- Kd [5]: 0.204 nM
- koff [5]: 7.78e-05 s⁻¹
- kon [5]: 381000 M⁻¹ s⁻¹
- t½ [5]: 2.48 h
- ELISA luminescent signal [6]: 60500
- ELISA luminescent signal [7]: 238000
- ELISA luminescent signal [8]: 4270
- ELISA luminescent signal [9]: 3400
- ELISA luminescent signal [10]: 647000
- ELISA luminescent signal [11]: 5410
- ELISA luminescent signal [12]: 1510
- ELISA luminescent signal [13]: 3340
- ELISA luminescent signal [14]: 10700
- ELISA luminescent signal [15]: 2460
- ELISA luminescent signal [16]: 21000
- Fc: S. aureus blocking activity (%) [17]: 97%
- ELISA luminescent signal [18]: 6680
- EC50 [19]: 0.0154 nM
- ELISA luminescent signal [20]: 20600
- median cfu/mL after 16 h in 50% normal human serum, mAb 10 ug/mL [21]: 6e+06 cfu/mL
- median cfu/mL after 16 h in 50% normal human serum, mAb 30 ug/mL [21]: 8.3e+06 cfu/mL
- median cfu/mL after 16 h in 50% normal human serum, mAb 90 ug/mL [21]: 8.5e+06 cfu/mL
- median cfu/mL after 16 h in 50% normal human serum, mAb 270 ug/mL [21]: 3.8e+06 cfu/mL
- median cfu/mL after 16 h in 50% normal human serum, mAb 10 ug/mL [22]: 4.3e+06 cfu/mL
- median cfu/mL after 16 h in 50% normal human serum, mAb 30 ug/mL [22]: 1e+06 cfu/mL
- median cfu/mL after 16 h in 50% normal human serum, mAb 90 ug/mL [22]: 600000 cfu/mL
- median cfu/mL after 16 h in 50% normal human serum, mAb 270 ug/mL [22]: 180000 cfu/mL
- median cfu/mL after 16 h in 50% normal human serum, mAb 10 ug/mL [23]: 7.3e+06 cfu/mL
- median cfu/mL after 16 h in 50% normal human serum, mAb 30 ug/mL [23]: 6.8e+06 cfu/mL
- median cfu/mL after 16 h in 50% normal human serum, mAb 90 ug/mL [23]: 6.8e+06 cfu/mL
- median cfu/mL after 16 h in 50% normal human serum, mAb 270 ug/mL [23]: 4.5e+06 cfu/mL
- ELISA luminescent signal [24]: 3470
